Results on 78 sequences are retold here after the supplement of paper PMC10724198.

± gives the standard deviation of the averaged measurements.
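Also: PSI is a weighted mean of sequencing reads over stability bins, variants kept only with over 10 reads, mCherry proximal and sfGFP distal, peptide attached via GGGS linker.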

The data set relates to Saccharomyces cerevisiae. As to the kind of experiment: protein stability index of tFT-peptide fusion (C-terminal peptide) (PSI (0-1 scale)); higher = more stable (slower turnover). The conditions noted are these: genetic background: wild type; temperature: 30 C. As for the experimental part:
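Multiplexed protein stability (MPS) profiling in S. cerevisiae. Random 12-aa peptides (tFT-X12 library) are fused to the C-terminus of a sfGFP-mCherry tandem fluorescent timer, after mCherry and a GGGS linker. Cells are FACS-sorted into 8 mCherry/sfGFP bins and deep-sequenced. The protein stability index (PSI) is the read-weighted bin average, scaled from 0 (unstable) to 1 (stable). Only peptides with >10 reads are reported; cells were grown at 30 °C in SC-His with glucose.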
The sequence GGSGPSGSPRRR came in with a protein stability index of 0.727 ± 0.054. Next, GGSSLSSSSVIR: 0.675 ± 0.036; GGSSWSLGGGGG: 0.7406 ± 0.0023. Next, GGSWGVGGVFVR: 0.658 ± 0.03. Under GGTGFMHSVDYG stands 0.644 ± 0.0089; under GGTRCQYKNLFG, 0.683 ± 0.029.

The sequence GGTSCLLSTAGD came in with a protein stability index of 0.653 ± 0.079. Under GGVEWEQQGRKE stands 0.706 ± 0.072. Under GGVGGGVEPCFV stands 0.66 ± 0.028. In turn, GGVGGRGIGFPR yielded a protein stability index of 0.684 ± 0.055. Under GGVLGPEVCVGG stands 0.693 ± 0.047; under GGVRGGAAEGAV, 0.751 ± 0.076. Under GGVRGRRLLGGR stands 0.7 ± 0.046. Under GGVRGVRGRGVG stands 0.639 ± 0.049; under GGVRSLLWAVVW, 0.583 ± 0.009. Regarding GGVSVPSERFRS, the protein stability index was determined as 0.788 ± 0.044. Under GGVWFSCSSAFS stands 0.871 ± 0.075. GGWDLIASVREF displayed a protein stability index of 0.649 ± 0.017.

The sequence GGWGGRGQGWYR yielded a protein stability index of 0.6673 ± 0.0055.

With GGWGRRRLDGGR, the protein stability index was 0.7221 ± 0.0064. The sequence GGWWWAVGFGGL came in with a protein stability index of 0.66 ± 0.017. GGYGEGAVLFVG showed a protein stability index of 0.58 ± 0.012. Next, GHAITSALITHR: 0.652 ± 0.024; GHKIIPPSTRFR: 0.626 ± 0.063. GHSRSTFPWLVI: the protein stability index stood at 0.79 ± 0.095. Next, GIAACASSGLAV: 0.657 ± 0.034; GIENTYVVIFID: 0.598 ± 0.068; GIGEGRDGFVVV: 0.67 ± 0.058. Next, GIGVVVLGGCTR: 0.706 ± 0.056. Under GIHLAPVCASSP stands 0.71 ± 0.035; under GIIQKAQTSIKI, 0.592 ± 0.0067; under GIKAIEKGDIHL, 0.699 ± 0.021. For GILFFPSGGISP, the protein stability index is 0.805 ± 0.12. Next, GILRSDAVWSFI: 0.699 ± 0.042; GILSPSSLVSSL: 0.69 ± 0.057; GITHSFLRSSVV: 0.689 ± 0.054.

The sequence GITWSYNKSISH registered a protein stability index of 0.722 ± 0.048. On to GIVRGCGGGGEE, for which the protein stability index is 0.6922 ± 0.0049.

The sequence GIVVEELIFCGR gave a protein stability index of 0.63 ± 0.0087. Under GIYFARRVVDFG stands 0.65 ± 0.011. Under GKDSSTASNRYT stands 0.688 ± 0.027; under GKEIHREIIVTV, 0.618 ± 0.014.

Consider GKKEGREAGDRG, for which the protein stability index was 0.691 ± 0.092. Under GKKKKRIDTKYK stands 0.713 ± 0.15; under GKKRTGRGESAK, 0.693 ± 0.062. Next, GKLQFAEYYNGI: 0.66 ± 0.0081; GKNKYIYKKKRH: 0.792 ± 0.072; GKRKREEDEEKK: 0.686 ± 0.097. Next, GKRRTIQPGQKM: 0.698 ± 0.032. Sequence GKSRRQGCDPRR yielded a protein stability index of 0.659 ± 0.035. Next, GKTRLRAKLTYN: 0.62 ± 0.08. Next, GLAASAFAVEEV: 0.711 ± 0.099; GLALSPFPTLSL: 0.64677 ± 0.00031. As for GLARPFVGFPHL, the protein stability index was determined as 0.7352 ± 0.0028.

In the case of GLCGFLLIETLL, the protein stability index stood at 0.64 ± 0.0085.

Sequence GLDSGVAGRRGV showed a protein stability index of 0.662 ± 0.0087. Under GLEFTAFRLRFL stands 0.667 ± 0.068; under GLERAVGWAVCG, 0.622 ± 0.015. Under GLERGRLGSGCG stands 0.652 ± 0.0075; under GLFRESVLGSVW, 0.708 ± 0.013; under GLFSGRCLCGGG, 0.688 ± 0.025. For GLFSRGKLIALS, the protein stability index is 0.571 ± 0.099. Next, GLGATSGGLRCG: 0.654 ± 0.014; GLGAWRGAGRVG: 0.649 ± 0.053; GLGGAWACGGGR: 0.719 ± 0.11. GLGKWGGGGDER had a protein stability index of 0.723 ± 0.012.

Consider GLGLGGRGMRVV, for which the protein stability index was found to be 0.687 ± 0.018. With GLGQGVGGPWAV, the protein stability index came out at 0.678 ± 0.041. Under GLGQHPSLMSPP stands 0.706 ± 0.028; under GLIGLVHFWRGT, 0.655 ± 0.035. Under GLKKRTIILSVK stands 0.532 ± 0.0056.

GLPFRYASYLFS: the protein stability index is 0.704 ± 0.031. Under GLPLPTPLLPSP stands 0.723 ± 0.01. GLPWRRVGGGSG displayed a protein stability index of 0.699 ± 0.048. Next, GLRENIFTDKKN: 0.728 ± 0.06; GLRHCLLHRTCQ: 0.599 ± 0.0079; GLRLFWFRRVRA: 0.537 ± 0.012. Next, GLRSVQISHIRQ: 0.694 ± 0.012.
